By IC50 is commonly meant the midpoint of a concentration-inhibition curve.

For assay [1], the target named is light-activated rhodopsin (bovine rod outer segment membranes) (bovine) (UniProt P02699). As to the kind of experiment: ELISA, MBP fusion protein on immobilised light-activated rhodopsin.
For assay [2], the target named is human thrombin receptor (PAR1) (human) (UniProt P25116). As to the kind of experiment: ELISA, purified MBP-Gαq on purified reconstituted PAR1 with thrombin receptor activating peptide. For orientation: ELISA stands for enzyme-linked immunosorbent assay.
human thrombin receptor (PAR1) (human), sequence (P25116 42-425): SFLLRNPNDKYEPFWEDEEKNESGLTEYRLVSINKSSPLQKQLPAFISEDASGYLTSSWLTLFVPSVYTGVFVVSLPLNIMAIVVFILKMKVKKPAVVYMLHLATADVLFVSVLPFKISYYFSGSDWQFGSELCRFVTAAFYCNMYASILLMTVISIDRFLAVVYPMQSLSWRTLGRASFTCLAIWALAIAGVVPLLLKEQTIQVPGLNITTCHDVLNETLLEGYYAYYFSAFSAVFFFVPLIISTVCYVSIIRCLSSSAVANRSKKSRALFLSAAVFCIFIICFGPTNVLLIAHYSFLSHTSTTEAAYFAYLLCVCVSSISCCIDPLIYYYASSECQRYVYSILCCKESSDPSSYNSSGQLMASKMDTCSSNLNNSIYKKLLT

light-activated rhodopsin (bovine rod outer segment membranes) (bovine), sequence (P02699 whole entry, the tested form may be a part): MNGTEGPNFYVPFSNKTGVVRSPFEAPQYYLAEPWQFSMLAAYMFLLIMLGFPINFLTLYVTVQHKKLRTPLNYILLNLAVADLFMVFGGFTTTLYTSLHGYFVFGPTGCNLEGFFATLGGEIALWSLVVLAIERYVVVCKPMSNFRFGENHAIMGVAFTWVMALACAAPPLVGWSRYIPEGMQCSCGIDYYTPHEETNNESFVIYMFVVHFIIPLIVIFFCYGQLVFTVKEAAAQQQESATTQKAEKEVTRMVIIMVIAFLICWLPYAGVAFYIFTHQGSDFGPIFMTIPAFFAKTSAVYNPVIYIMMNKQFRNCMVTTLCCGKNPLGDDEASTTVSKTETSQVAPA

In turn, “MBP-Gαt340-350K341R fusion protein (pELM17)” registered an IC50 in assay [1] of 6 µM.

“maltose binding protein-Gαq (MBP-Gαq), native Gq peptide fusion” registered an IC50 in assay [2] of 0.214 µM.

The record behind these values is patent US20040018558A1.
